Measurements as given in article PMC10641220, “Pseudomonas aeruginosa AlgF is a protein–protein interaction mediator required for acetylation of the alginate exopolysaccharide” (The Journal of Biological Chemistry, 2023).

Assays:
AlgJPp^75-370 = molecular target: T1, AlgJPp^75-370 (Pseudomonas putida, UniProt Q88ND3 75-370); test: ITC; MicroCal Auto-ITC200, 20 °C, 50 mM Tris pH 7.8, 150 mM NaCl, 2% glycerol, 50 mM arginine, 50 mM glutamic acid; 1.86 mM AlgJ (syringe) into 188 μM AlgF (cell); 4.17 mM AlgF (syringe) into 500 μM AlgX (cell); 2.97 mM AlgJ (syringe) into 170 μM AlgX (cell); conditions: both partners purified
T1 construct: AlgJ of Pseudomonas putida, residues 75-370
T1 sequence (looked up): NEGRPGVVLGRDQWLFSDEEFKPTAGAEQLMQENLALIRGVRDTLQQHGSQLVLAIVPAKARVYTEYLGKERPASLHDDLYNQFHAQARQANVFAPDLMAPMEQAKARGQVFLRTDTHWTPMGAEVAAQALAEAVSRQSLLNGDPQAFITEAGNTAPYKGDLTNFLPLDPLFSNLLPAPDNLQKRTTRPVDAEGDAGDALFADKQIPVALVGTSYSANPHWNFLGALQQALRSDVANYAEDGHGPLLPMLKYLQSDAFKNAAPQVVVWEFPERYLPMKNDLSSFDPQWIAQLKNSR

AlgXPp = molecular target: T2, AlgXPp (Pseudomonas putida KT2440, UniProt Q88ND0 25-479); test: as above; conditions: both partners purified
T2 construct: AlgX of Pseudomonas putida KT2440, codon-optimized synthetic gene of full-length AlgXPp in pET24b; AlgX is a periplasmic protein
T2 sequence (looked up): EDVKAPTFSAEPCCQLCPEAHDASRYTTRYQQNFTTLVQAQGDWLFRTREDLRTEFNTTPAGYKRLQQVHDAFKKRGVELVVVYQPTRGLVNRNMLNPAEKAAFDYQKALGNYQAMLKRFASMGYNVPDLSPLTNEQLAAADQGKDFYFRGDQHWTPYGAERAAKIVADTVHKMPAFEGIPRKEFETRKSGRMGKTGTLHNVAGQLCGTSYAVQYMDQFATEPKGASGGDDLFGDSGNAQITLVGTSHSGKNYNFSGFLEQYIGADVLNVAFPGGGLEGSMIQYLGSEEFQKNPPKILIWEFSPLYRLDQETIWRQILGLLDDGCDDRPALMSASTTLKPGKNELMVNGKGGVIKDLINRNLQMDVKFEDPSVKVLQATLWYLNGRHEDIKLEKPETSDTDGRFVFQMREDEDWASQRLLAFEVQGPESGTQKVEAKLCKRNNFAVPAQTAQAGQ

B1: AlgFPp^29-215 (domain or fragment, Pseudomonas putida KT2440, UniProt Q88ND4 29-215, looked up)
chain: DAALYGPSAPKGSTFVRLYNATSAPAAASVGNTQIKQVGAQASSDFSFLPGGDYTAQVGGKSVPVKLASDKYYTLVNSNSGSPKLIEEPPFKNKQKALVRVQNLSDQQLTLKTADGKTEVVKPVAANGRGEREINPVKVNLALYQGDKKVGDVKPVALERGEAAVLYVTGSGNALSPVWVTRPVASN
notes: the results text calls the construct 30-215; Cloned in pET28a with a 3' stop codon; also called AlgFPp^30-215; source: E. coli BL21 CodonPlus (λDE3), purified (Ni-NTA, Superdex 200 SEC)
Kd (AlgJPp^75-370): 86 ± 12 µM
Kd (AlgXPp): 178 ± 5 µM
